For orientation: Kd means the concentration at which binding is half-saturated. The low end stands for higher affinity, the high end for lower affinity. In general, koff refers to the rate constant with which the complex falls apart. A higher koff goes with a short-lived complex. Broadly, the kon is a measure of how fast the partners come together. A higher kon goes with faster complex formation.

The assay has as its target human aminopeptidase N (hAPN), residues 66 to 967 (human, UniProt P15144 66-967). Nature of the assay: SPR.

Chain of human aminopeptidase N (hAPN), residues 66 to 967 (P15144 66-967): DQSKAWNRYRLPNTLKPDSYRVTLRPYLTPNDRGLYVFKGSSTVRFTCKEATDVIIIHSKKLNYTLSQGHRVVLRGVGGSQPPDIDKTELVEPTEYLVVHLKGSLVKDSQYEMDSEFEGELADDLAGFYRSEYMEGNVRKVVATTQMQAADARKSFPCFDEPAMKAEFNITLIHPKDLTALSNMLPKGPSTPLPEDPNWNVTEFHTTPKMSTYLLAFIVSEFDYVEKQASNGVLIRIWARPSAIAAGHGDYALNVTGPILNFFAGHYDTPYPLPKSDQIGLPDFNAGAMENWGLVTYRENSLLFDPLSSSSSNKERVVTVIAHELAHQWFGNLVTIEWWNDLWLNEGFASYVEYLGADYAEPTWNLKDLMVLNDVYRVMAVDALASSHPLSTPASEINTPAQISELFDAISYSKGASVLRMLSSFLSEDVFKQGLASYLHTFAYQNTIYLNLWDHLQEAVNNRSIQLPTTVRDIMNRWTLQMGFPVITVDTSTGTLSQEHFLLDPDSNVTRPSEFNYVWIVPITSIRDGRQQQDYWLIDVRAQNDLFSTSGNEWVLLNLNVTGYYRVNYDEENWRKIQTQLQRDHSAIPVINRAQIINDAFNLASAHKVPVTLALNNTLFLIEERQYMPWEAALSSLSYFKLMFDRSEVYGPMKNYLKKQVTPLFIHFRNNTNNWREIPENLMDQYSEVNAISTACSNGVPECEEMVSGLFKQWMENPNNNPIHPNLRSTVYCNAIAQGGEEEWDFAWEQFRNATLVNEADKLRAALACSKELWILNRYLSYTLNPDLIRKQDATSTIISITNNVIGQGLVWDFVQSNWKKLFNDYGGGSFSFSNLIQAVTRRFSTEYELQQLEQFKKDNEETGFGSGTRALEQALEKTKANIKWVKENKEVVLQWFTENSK

B1: HCoV-229E S1-RBD (residues 295 to 428) with C-terminal Fc tag (Fc fusion)
chain: VYHKHTFIVLYVDFKPQSGGGKCFNCYPAGVNITLANFNETKGPLCVDTSHFTTKYVAVYANVGRWSASINTGNCPFSFGKVNNFVKFGSVCFSLKDIPGGCAMPIVANWAYSKYYTIGSLYVSWSDGDGITGV
Take B1: the Kd came out at 36 nM, the off-rate (koff) was 0.00115 s⁻¹ and the kon is 32000 M⁻¹ s⁻¹.

B2: HCoV-229E S1 (residues 1 to 536) with C-terminal Fc tag (Fc fusion)
chain: CQTTNGLNTSYSVCNGCVGYSENVFAVESGGYIPSDFAFNNWFLLTNTSSVVDGVVRSFQPLLLNCLWSVSGLRFTTGFVYFNGTGRGDCKGFSSDVLSDVIRYNLNFEENLRRGTILFKTSYGVVVFYCTNNTLVSGDAHIPFGTVLGNFYCFVNTTIGNETTSAFVGALPKTVREFVISRTGHFYINGYRYFTLGNVEAVNFNVTTAETTDFCTVALASYADVLVNVSQTSIANIIYCNSVINRLRCDQLSFDVPDGFYSTSPIQSVELPVSIVSLPVYHKHTFIVLYVDFKPQSGGGKCFNCYPAGVNITLANFNETKGPLCVDTSHFTTKYVAVYANVGRWSASINTGNCPFSFGKVNNFVKFGSVCFSLKDIPGGCAMPIVANWAYSKYYTIGSLYVSWSDGDGITGVPQPVEGVSSFMNVTLDKCTKYNIYDVSGVGVIRVSNDTFLNGITYTSTSGNLLGFKDVTKGTIYSITPCNPPDQLVVYQQAVVGAMLSENFTSYGFSNVVELPKFFYA
On to B2, for which the Kd turned out to be 255 nM, the koff was 0.000226 s⁻¹ and the kon was 886 M⁻¹ s⁻¹.

The values above are taken from paper PMC8092709 (Journal of Virology, 2021).
